T1: Bad (Homo sapiens, UniProt Q92934)
T1 construct: expressed in transfected cells; host or cells: yeast strain EGY191
T1 sequence (Q92934 1-168): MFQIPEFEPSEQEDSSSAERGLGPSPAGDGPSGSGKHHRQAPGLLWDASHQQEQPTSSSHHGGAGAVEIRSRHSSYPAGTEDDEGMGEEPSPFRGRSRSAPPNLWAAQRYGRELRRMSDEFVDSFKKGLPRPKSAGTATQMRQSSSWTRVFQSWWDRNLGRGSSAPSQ

T2: Bak (Homo sapiens, UniProt Q16611)
T2 construct: expressed in transfected cells; host or cells: yeast strain EGY191
T2 sequence (Q16611 1-190 limits assumed): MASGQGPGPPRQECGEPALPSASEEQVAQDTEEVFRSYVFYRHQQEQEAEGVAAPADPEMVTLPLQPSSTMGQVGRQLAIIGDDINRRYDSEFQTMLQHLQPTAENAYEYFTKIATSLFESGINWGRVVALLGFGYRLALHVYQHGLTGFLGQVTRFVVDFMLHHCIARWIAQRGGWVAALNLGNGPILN


Key:
[1] = target: T3, Bcl-2 (Homo sapiens, UniProt P10415); test: yeast two-hybrid assay, human Bad bait with Bcl-2 prey; type: binding; conditions: yeast strain EGY191, LexA-Bad bait, B42 prey, FIG. 3
T3 construct: expressed in transfected cells; host or cells: yeast strain EGY191
T3 sequence (P10415 1-218 limits assumed): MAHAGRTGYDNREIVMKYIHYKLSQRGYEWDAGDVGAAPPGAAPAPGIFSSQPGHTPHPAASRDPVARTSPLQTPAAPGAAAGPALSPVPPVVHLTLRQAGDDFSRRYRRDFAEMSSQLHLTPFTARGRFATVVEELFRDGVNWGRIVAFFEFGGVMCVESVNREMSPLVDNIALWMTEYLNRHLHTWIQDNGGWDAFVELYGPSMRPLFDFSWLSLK
Text: (§1) To assess whether Bcl-2 family members bind to or otherwise interact with human Bad and to map their binding domains, a yeast two-hybrid system was employed using the above described clones. Briefly, the full length human Bad sequence was subcloned into the yeast 2-hybrid vector pEGE202, or “bait-vector” to express Bad as a fusion protein with the DNA-binding protein LexA (Ruden et al., Nature (1991) 350:426-430). Human Bcl-2, Bcl-X, Bax, Bak and Bad were similarly cloned into the yeast 2-hybrid vector pJG4-5, or “prey-vector” to expressed these Bcl-2 family members as fusion proteins with the transcriptional activator B42 (Gyuris et al., Cell (1993) 75:791-803). Briefly, the full length human Bad sequence was amplified by PCR and subcloned into the bait-vector. For the PCR reaction we used the following primers: 5′ATCAGTGAATTCACTATGTTCCAGATCCCA GAC3′ (SEQ ID NO: 4) and 5′ATCGATCTCGAGTCACTGGGAGGGGGCGGA GCT3′ (SEQ ID NO: 5). […]
(§2) To determine if human Bad binds to any of the above Bcl-2 family members, the Bad-bait plasmid was cotransformed with every prey plasmid and the reporter plasmid p18-34 into the yeast strain EGY191. […] The reaction was stopped with 0.4 M NaOH and the plate was read at an OD 420 nm. Protein-protein interaction was measured as beta-galactosidase activity using the following equation: OD 420:(OD 600×0.1 ml×ONPG reaction time).

[2] = target: T1, Bad; test: yeast two-hybrid assay, human Bad bait with Bad prey; type: binding; conditions: yeast strain EGY191, LexA-Bad bait, B42 prey, FIG. 3
Text: as §1, §2

[3] = target: T2, Bak; test: yeast two-hybrid assay, human Bad bait with Bak prey; type: binding; conditions: yeast strain EGY191, LexA-Bad bait, B42 prey, FIG. 3
Text: as §1, §2

[4] = target: T4, Bax (Homo sapiens, UniProt Q07812); test: yeast two-hybrid assay, human Bad bait with Bax prey; type: binding; conditions: yeast strain EGY191, LexA-Bad bait, B42 prey, FIG. 3
T4 construct: expressed in transfected cells; host or cells: yeast strain EGY191
T4 sequence (Q07812 1-174 limits assumed): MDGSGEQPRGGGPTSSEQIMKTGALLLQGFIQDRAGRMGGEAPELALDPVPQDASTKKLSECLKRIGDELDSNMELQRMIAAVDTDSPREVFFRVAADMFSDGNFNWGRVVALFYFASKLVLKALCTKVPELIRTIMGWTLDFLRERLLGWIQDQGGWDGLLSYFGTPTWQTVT
Text: as §1, §2

[5] = target: T5, Bcl-XL (Homo sapiens, UniProt Q07817); test: yeast two-hybrid assay, human Bad bait with Bcl-XL prey; type: binding; conditions: yeast strain EGY191, LexA-Bad bait, B42 prey, FIG. 3
T5 construct: expressed in transfected cells; host or cells: yeast strain EGY191
T5 sequence (Q07817 1-212 limits assumed): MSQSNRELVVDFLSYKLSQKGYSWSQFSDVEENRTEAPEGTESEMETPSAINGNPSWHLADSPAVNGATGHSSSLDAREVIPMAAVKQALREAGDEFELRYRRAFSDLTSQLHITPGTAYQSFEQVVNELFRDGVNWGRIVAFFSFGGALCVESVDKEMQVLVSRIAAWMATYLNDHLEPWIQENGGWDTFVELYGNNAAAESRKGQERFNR
Text: as §1, §2

[6] = target: GST-Bcl-2 (Homo sapiens, UniProt P10415); test: ELISA-type binding assay, plate-coated 6HBad with GST-Bcl-2; conditions: anti-GST detection, FIG. 4
Sequence of GST-Bcl-2 (P10415 whole entry): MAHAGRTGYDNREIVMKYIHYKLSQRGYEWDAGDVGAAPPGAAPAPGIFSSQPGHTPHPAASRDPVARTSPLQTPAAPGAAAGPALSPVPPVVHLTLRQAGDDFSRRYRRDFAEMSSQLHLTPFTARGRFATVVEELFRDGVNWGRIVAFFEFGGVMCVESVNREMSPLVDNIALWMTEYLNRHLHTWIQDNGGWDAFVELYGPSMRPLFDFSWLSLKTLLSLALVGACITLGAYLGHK

[7] = target: T6, GST-Bcl-XL (Homo sapiens, UniProt Q07817); test: ELISA-type binding assay, plate-coated 6HBad with GST-Bcl-XL; conditions: FIG. 4
T6 construct: made in house; host or cells: E. coli XL1-Blue (pGEX constructs); E. coli BL21 pLysS (6HBad)
T6 sequence (Q07817 1-211 limits assumed): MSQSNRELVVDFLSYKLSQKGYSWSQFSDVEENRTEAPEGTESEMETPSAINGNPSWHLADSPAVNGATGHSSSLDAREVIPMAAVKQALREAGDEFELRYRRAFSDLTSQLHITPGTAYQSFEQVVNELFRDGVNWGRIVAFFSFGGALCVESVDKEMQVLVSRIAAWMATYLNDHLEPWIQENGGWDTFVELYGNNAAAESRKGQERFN
Text: To generate fusion proteins for these screening assays, Bad and Bcl-xL were cloned into pET-15b (Novagen) and pGEX 4T1 (Pharmacia) vectors, respectively. The pET15b-bad construct was made as follows. Full length bad cDNA was amplified by PCR using cDNA BM1 as template and primers containing NdeI (5′) and XhoI (3′) restriction sites (5′ primer: 5′-GGGAATTCCATATGTTCCAGATCCCAGAG-3′ (SEQ ID NO: 10)); 3′ primer: 5′-TACAGTCTCGAGTCACTGGGAGGGGGCGGAGCT-3′ (SEQ ID NO: 11)). The PCR product was then digested with NdeI/XhoI and ligated into the NdeI and XhoI sites of pET15b. The above primer sequences were chosen such that the bad ORF sequence would be in frame with 5′ vector sequence encoding a six residue Histidine tag. The final construct was termed pET-15 6H Bad. […]

Molecule	protein-protein interaction with Bcl-2 (beta-galactosidase activity) [1]	protein-protein interaction with itself (beta-galactosidase activity) [2]	protein-protein interaction with Bak (beta-galactosidase activity) [3]	protein-protein interaction with Bax (beta-galactosidase activity) [4]	protein-protein interaction with Bcl-XL (beta-galactosidase activity) [5]	interaction with GST-Bcl-2 in ELISA [6]	relative binding affinity to GST-Bcl-xL in ELISA ([7]; compared with GST-Bcl-2 and GST-Bax)	interaction with GST-Bcl-XL in ELISA ([7]; plate-coated 6HBad, anti-GST detection)
human Bad: human Bcl-xL/Bcl-2 associated death promoting polypeptide, SEQ ID NO:2, encoded by cDNA clone BM1 (protein, listed as Homo sapiens) MFQIPEFEPSEQEDSSSAERGLGPSPAGDGPSGSGKHHRQAPGLLWDASHQQEQPTSSSHHGGAGAVEIRSRHSSYPAGTEDDEGMGEEPSPFRGRSRSAPPNLWAAQRYGRELRRMSDEFVDSFKKGLPRPKSAGTATQMRQSSSWTRVFQSWWDRNLGRGSSAPSQ	interacts	no interactions were observed	no interactions were observed	no interactions were observed	interacts			
6HBad: full length human Bad with a six residue Histidine tag, expressed from pET-15 6H Bad in E. coli (protein, left off: small tags and cut ends) MFQIPEFEPSEQEDSSSAERGLGPSPAGDGPSGSGKHHRQAPGLLWDASHQQEQPTSSSHHGGAGAVEIRSRHSSYPAGTEDDEGMGEEPSPFRGRSRSAPPNLWAAQRYGRELRRMSDEFVDSFKKGLPRPKSAGTATQMRQSSSWTRVFQSWWDRNLGRGSSAPSQ						interacts	highest affinity	interacts
